The results in this text go back to the DeepSol protein solubility set.

The nature of the data set: soluble on expression in E. coli; label from the status in PepcDB or PDB records.
Consider “MISAQSLTRPQLRRQLRKARRVLTRSQQRAAARGLYQQLAQHPLFRRARHVSLYLPMDGEIDPRLLLREAQRRGKATYLPVLNAWPRTRMVFQRVRPGEKFIPNRFRIPEPRINRTKQRPVWALDLVLMPLVGFDDEGGRLGMGGGFYDRSLAYLARRKTWRKPALLGLAHECQKVDRLAQAIWDVPLQGTVSDKQWYLTQRLLEHHHHHH”, for which the “soluble on expression in E. coli” value is “not soluble”. In the case of “MGSDKIHHHHHHALSPETGSTSVAVMGRQLYEEMRLDQWVCFDAFMQGLRGSEKIDRKNKDILTLIDFSKPSTAERMVVLDIRQKRILYTSLVSHGKNSGGNYATSFSNENGSHKSSLGFYLTENTYQGRNGYSLILNGLEKGINDLAKQRAIVIHGASYSDPSVAASSGRLGRSFGCPALPVSVSKPIINTIKNGTLLFIYANDKNYLTQSSILSTQQENDIFHEKSYRKVL” it was “not soluble”; in that of “MKKTIVFKCGGSVIRELSEEFYQNLKELRASGWKLAIVHGGGPEITNMLKRLNIKTEFSGGQRKTTKPVLEVAEMVLSGSVNKFFVAELAKHGLRAAGISGKDGGLLEADYLDPETYGEVGEIKKVDASMVNALMENGIIPVIAPLSMTSDCKTLNVNADLAASAVAGALEADKLMFVTDVDGIMKEKQRLDVLTPKEIQMLIKQEVITGGMIPKVNSALSALSDQVSEVMIVNGKGSFFAEQTFQGTKIVKAKEAVS”, “not soluble”; in that of “ELKDSYVDYTLLYDMIANRIGIEEAVVENGALRLMKNQVWAYDFLPHMLIAGGTGGGKTYFLLTIIEALLKSDAELFILDPKNADLADLGTIMTHVYSQKEQISACVEDFYERMMVRSRLMKEMPNYKTGENYAYLGLSPNFLVFDEYVAYMEMLTTKESAVILNKLKQIVMLGRQSGFFLILACQRPDA”, “not soluble”. With “MPVIPKSGRLAAVGVLGRIVDVLMRLSLLIRGAVPGGVAAAAATRYRDRIDTGTTATYYGRVVREGGYVVLQYWFFYAMNDWRSVYGGVNDHEADWEKVTVYLVEEENGEYRPVWVGASSHEYLGDDLRRRWDDPELHRDGNHPIIYVGAGSHSHQMLPGDYLIQVDPAFLRGVLRAWRRFTARFLPSSSRLRGIGVPFVDYARGDGVRVGPGGERTWTPVLIDDTTPWVRGYRGLWGRNTRDWFDGERAPSGPRYERLEHHHHHH”, the “soluble on expression in E. coli” value is given as “soluble”. The same measure for “GPGSMVEVPRNFRLLQELEAGEKGTGVSQSVSIGLSGMDDIYMHNWNGTILGPPGTTFENRILSLEIHCDEHYPKRPPNIKFISRVNLPCVSSDGTVDKNKFAVFKTWDRNFTMAHCLMELRREMSLPANKKLPQPEEGSTY”: “soluble”; for “MKDEISNPDLGAIYTTKILGVLLENWPKQTYLCCSEVTGIDFDEESVFDSFSPQPYPKEWEVCRDLIVWLENEGFIRSEGSRGSSFGFFSVEITMSAMTALNQVPDPLDPESTRTLKDTLKDIAKSGSGKLADKIMDKAFFAFVTMLEKSAG”: “not soluble”. In the case of “MGSDKIHHHHHHMYTMFYTSKTALSANQSKLDIISNNIANSDSTGYKKINMEYSDLVDEVLNRPSYPTNGNDISTGTGAKATAPMRNYEQGALAPTDSKSNLAIDGEGFFRVIRKDGTYAYTRNGGFNVDALGKIVDDNGNILDVQFDAGYNYNNTNIDSTNLTVSRNGELFVDNKKIGKINLYQPIGTQNFISEGDSLFVATDAAQIKQVEKVDIVQGYRERSNVSLQEEFVDLIATQRAFQMNSKGIKTADEMWQIANNLRAK” it was “not soluble”.

For the sequence “MAPLLHQVSNYGYGKCVTVRFCDGKTYDAKDGESRAINRDLNVGAVKIYRDSKDEDQAYVLNYFPYNLELNDNRGKNKGLQGYRVLIWKQYGTINLDVFYDEMKIWCKTNDLGIYTSDGELKYYKSVIARHREEGGISVIGFETAEGATTAAAKKEEDENEEASAKVKEANEEESTNA”, the “soluble on expression in E. coli” value was “soluble”. For “MGSDKIHHHHHHMTTLSDVAKEANVSKMTVSRVINHPEQVTPELRAMVEKAMEKLNYHPNSIAQALVNNRSNVVKFVTLEDIDTTEPYYTNLLFGFARGLNAKQYALQLVVDPTRIEKGRADGYLITGARNEDYDMFDKLDKPFVLFGENHRGYDFVDTDNQTAEKMATQYALDRLYKHIIFIGIDIKEPFEYSREAGYINTLQQHRLIPQIYRVSNHSHAAQKVIHEHFKEFKKDTCFICASDRIAVGVVRQLQDERARIPEDFGVIGFDGVFLDQVSNPKLTTIKQPIFEMGKMLAKMLLQKIDQSGSPQGELMVKPQLIRRETTR”, the “soluble on expression in E. coli” value is given as “not soluble”.
